Experiments:
[1] = molecular target: linalool dehydratase-isomerase from Castellaniella defragrans (formerly Alcaligenes defragrans), SEQ ID NO: 19 (Castellaniella defragrans, UniProt E1XUJ2); assay: 1,3-butadiene production from 3-buten-2-ol (GC/FID); type: biochemical; conditions: 0-80 mM 3-buten-2-ol, cell lysate with recombinant enzyme, 2 mM DTT, pH 7.5, 37° C, 1-22 hours
Description: The sequence of linalool dehydratase-isomerase inferred from the genome of Castellaniella defragrans (formerly Alcaligenes defragrans) was generated by oligonucleotide concatenation to fit the codon usage of E. coli. A stretch of 6 histidine codons was inserted after the methionine initiation codon to provide an affinity tag for purification. The gene thus synthesized was cloned in a pET25b(+) expression vector (the vector was constructed by GeneArt AG). Competent E. coli BL21(DE3) cells (Novagen) were transformed with this vector according to the heat shock procedure. As negative control, E. coli BL21(DE3) strain was transformed with empty vector. The transformed cells were grown with shaking (160 rpm) on ZYM-5052 auto-induction medium (Studier F W, Prot. Exp. Pur. 41 (2005), 207-234) for 6 hours at 37° C. and protein expression was continued at 18° C. overnight (approximately 12 hours). The cells were collected by centrifugation at 4° C., 10,000 rpm for 20 min and the pellets were frozen at −80° C.
The pellets from 100 ml of culture cells were thawed on ice and resuspended in 4 ml of 50 mM Tris-HCl pH 7.5. […] Protein concentration was determined using the Bradford method (Biorad). […]
0.25 ml of cell lysate containing recombinant linalool dehydratase-isomerase was added to 0.5 ml of reaction mixture. […] 1,3-butadiene production was analyzed by GC/FID procedure. […]

[2] = molecular target: 3-hydroxypropionyl-CoA dehydratase from Sulfolobus tokodaii, SEQ ID NO: 3 (Uniprot F9VNG3) (Sulfurisphaera tokodaii, UniProt F9VNG3); assay: Kinetic parameters of the dehydration of 4-hydroxy-2-butanone to 3-buten-2-one; type: biochemical; conditions: 0-300 mM 4-hydroxy-2-butanone, 20 mM MgCl2, pH 7.5, 37° C
Chain of 3-hydroxypropionyl-CoA dehydratase from Sulfolobus tokodaii, SEQ ID NO: 3 (Uniprot F9VNG3) (F9VNG3 1-257): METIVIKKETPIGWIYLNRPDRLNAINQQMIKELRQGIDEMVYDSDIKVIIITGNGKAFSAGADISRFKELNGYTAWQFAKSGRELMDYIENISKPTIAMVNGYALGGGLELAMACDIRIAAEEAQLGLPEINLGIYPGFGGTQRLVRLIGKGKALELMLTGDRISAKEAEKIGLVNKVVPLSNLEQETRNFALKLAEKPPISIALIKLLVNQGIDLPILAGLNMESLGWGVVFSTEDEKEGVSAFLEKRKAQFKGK
Method: Each assay was started with the addition of a specific enzyme at a final concentration of 4 mg/ml. Control assays were performed in which either no enzyme was added, or no substrate was added. Test tubes were incubated for 23 hours with shaking at 37° C. Reaction products were extracted with an equal volume of ethyl acetate and then analyzed by HPLC. Commercial 3-buten-2-one (Sigma) was used as reference. […] The mobile phase consisted of 98:2 (v/v) H2O/Acetonitrile containing 8.4 mM sulfuric acid. Retention time of 3-buten-2-one under these conditions was 5.4 min.
Kinetic parameters of the reaction were determined for purified recombinant 3-hydroxypropionyl-CoA dehydratase from Sulfolobus tokodaii under the following conditions:
4 mg/ml 3-Hydroxypropionyl-CoA dehydratase S. tokodaii
Test tubes were incubated for 0, 20, 60, 120 and 180 min with shaking at 37° C. The formation of 3-buten-2-one was quantified using commercial 3-buten-2-one according to the procedure described in Example 4.

[3] = molecular target: T1, Secondary alcohol dehydrogenase from Rhodococcus ruber, SEQ ID NO: 12 (Uniprot Q8KLT9) (Rhodococcus ruber, UniProt Q8KLT9); assay: Kinetic parameters of the reduction of 3-buten-2-one to 3-buten-2-ol; type: biochemical; conditions: 0-40 mM 3-buten-2-one, 40 mM NADPH, pH 7.5, 37° C
T1 sequence (Q8KLT9 1-346): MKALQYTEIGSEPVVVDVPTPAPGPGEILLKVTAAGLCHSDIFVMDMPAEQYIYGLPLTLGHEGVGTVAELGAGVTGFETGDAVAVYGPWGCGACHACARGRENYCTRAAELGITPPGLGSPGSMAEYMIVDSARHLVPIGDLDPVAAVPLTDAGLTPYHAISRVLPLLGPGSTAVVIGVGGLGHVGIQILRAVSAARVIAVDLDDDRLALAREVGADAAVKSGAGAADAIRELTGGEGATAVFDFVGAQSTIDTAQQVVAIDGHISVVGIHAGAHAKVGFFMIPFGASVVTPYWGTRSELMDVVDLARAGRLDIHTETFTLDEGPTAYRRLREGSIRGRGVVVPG
Method: (§1) The assays were incubated for various time periods (0, 20, 40, 60 120 and 240 min) with shaking at 37° C. […] The reaction products were then extracted with an equal volume of ethyl acetate. 150 μl of the upper ethyl acetate phase was transferred into a clean vial for HPLC analysis. Commercial 3-buten-2-ol (Sigma) was used as reference. […] The mobile phase consisted of 98:2 (v/v) H2O/acetonitrile containing 8.4 mM sulfuric acid. Retention time of 3-buten-2-ol and 3-buten-2-one under these conditions was 3.9 and 5.4 min, respectively.
(§2) The studied enzymatic reaction was carried out under the following conditions at 37° C.:
1 mg/ml alcohol dehydrogenase from R. ruber.
(§3) Reaction volume was 200 μl.
(§4) The assays were incubated for 0, 10, 20, 40, 60 and 120 min with shaking at 37° C. The formation of 3-buten-2-ol was quantified according to the protocol described in Example 8.

[4] = substrate: CC(=O)CC(=O)SCCNC(=O)CCNC(=O)[C@H](O)C(C)(C)COP(=O)(O)OP(=O)(O)OC[C@H]1O[C@@H](n2cnc3c(N)ncnc32)[C@H](O)[C@@H]1OP(=O)(O)O; assay: purified protein, by the assay type; conditions: other: acetoacetyl-CoA variable (0-32 mM), NADPH 60 mM, pH 7.5, 37° C
[5] = substrate: C=CC(C)=O; assay: Kinetic parameters of the reduction of 3-buten-2-one to 3-buten-2-ol; type: biochemical, Lactobacillus kefiri; conditions: other: 0-40 mM 3-buten-2-one, 40 mM NADPH, pH 7.5, 37° C
Method: as §1, §2
1 mg/ml alcohol dehydrogenase from L. kefiri.
as §3, §4

[6] = substrate: C=CC(C)=O; assay: Enzyme-catalyzed reduction of 3-buten-2-one to 3-buten-2-ol, HPLC-based; type: biochemical, Thermoanaerobium brockii; conditions: other: 0-40 mM 3-buten-2-one, 40 mM NADPH, 0.1 mM ZnCl2, pH 7.5, 37° C
Method: as §2
1 mg/ml alcohol dehydrogenase from Th. brockii
as §3, §1

Chain of linalool dehydratase-isomerase from Castellaniella defragrans (formerly Alcaligenes defragrans), SEQ ID NO: 19 (E1XUJ2 27-397): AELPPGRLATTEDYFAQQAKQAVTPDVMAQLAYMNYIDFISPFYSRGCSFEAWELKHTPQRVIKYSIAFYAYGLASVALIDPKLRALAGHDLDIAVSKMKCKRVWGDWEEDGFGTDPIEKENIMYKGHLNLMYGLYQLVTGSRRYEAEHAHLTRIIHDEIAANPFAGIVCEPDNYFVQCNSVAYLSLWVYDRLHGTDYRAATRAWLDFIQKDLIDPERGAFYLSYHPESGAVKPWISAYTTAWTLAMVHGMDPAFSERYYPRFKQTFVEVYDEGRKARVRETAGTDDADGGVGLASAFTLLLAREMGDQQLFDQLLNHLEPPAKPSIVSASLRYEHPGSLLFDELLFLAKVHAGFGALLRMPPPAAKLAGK

Molecule: C=CC(C)O (centres unmarked) [3-buten-2-ol]
- turnover number [1]: about 10^−4 s^−1 substrate molecule per enzyme active site

Molecule: CC(=O)CCO [4-hydroxy-2-butanone]
- kcat [2]: 0.0075 s⁻¹

Molecule: C=CC(C)=O [3-buten-2-one]
- kcat [3]: at least 0.03 s^−1

B1: Short chain alcohol dehydrogenase-like protein from Hahella chejuensis, SEQ ID NO: 11 (Uniprot Q2SCE0) (Hahella chejuensis KCTC 2396) (protein)
chain: MNYFVTGGTGFIGRFLVPKLLKRGGTVYLLVREASLPKLDELRERWNASDEQVVGVVGDLAQPMLGVSEKDAAMLRGKVGHFFHLAAIYDMQASAESQEQANIEGTRNAVKLADSLKAACFHHVSSIAAAGLYRGIFREDMFEEAEKLDNPYLRTKHESEKVVREECQTPWRVYRPGMVVGHSKTGEIDKIDGPYYFFKLIQKLRSALPQWMPTVGLEGGRINIVPVDFVVDAMDHIAHAEGEDGKCFHLTDPDPYKVGEILNIFAEAGHAPKMAMRIDARMFGFIPPMIRQGIARLPPVQRMKNAVLNDLGIPDEVMSFINYPTRFDNRETERLLKGTAIAVPRLQDYSPAIWDYWERHLDPDLHKDRTLRGAVEGRVCVITGATSGIGLSAARKLAEAGAKVVIAARTLEKLQEVKKELEELGGEVYEYSVDLSDLEDCDRFVANVLKDLGHVDVLVNNAGRSIRRSIQHAFDRFHDFERTMQLNYFGSLRLIMGFAPSMLERRRGHIVNISSIGVLTNAPRFSAYVASKAALDAFSRCAAAEFSDKNVTFTTINMPLVRTPMISPTKIYDSVPTLTPEEAADLVAEAIIHRPKRIATRLGVFAQVLHSMAPKFSEIIMNTGFKMFPDSSAATGGKDGEKPKVSTEQVAFAAIMRGIHW
- Km [4]: 5 mM
- kcat [4]: 0.07 s⁻¹

B2: R-specific alcohol dehydrogenase from Lactobacillus kefiri, SEQ ID NO: 17 (Uniprot Q6WVP7) (Lentilactobacillus kefiri) (protein)
chain: MTDRLKGKVAIVTGGTLGIGLAIADKFVEEGAKVVITGRHADVGEKAAKSIGGTDVIRFVQHDASDEAGWTKLFDTTEEAFGPVTTVVNNAGIAVSKSVEDTTTEEWRKLLSVNLDGVFFGTRLGIQRMKNKGLGASIINMSSIEGFVGDPTLGAYNASKGAVRIMSKSAALDCALKDYDVRVNTVHPGYIKTPLVDDLEGAEEMMSQRTKTPMGHIGEPNDIAWICVYLASDESKFATGAEFVVDGGYTAQ
- Km [5]: 19 mM
- kcat [5]: 4 s⁻¹

B3: Short-chain dehydrogenase/reductase (Fatty alcohol forming acyl-CoA reductase) from Marinobacter aquaeolei VT8, SEQ ID NO: 7 (Uniprot A1U3L3) (Marinobacter … (protein)
chain: MNYFLTGGTGFIGRFLVEKLLARGGTVYVLVREQSQDKLERLRERWGADDKQVKAVIGDLTSKNLGIDAKTLKSLKGNIDHVFHLAAVYDMGADEEAQAATNIEGTRAAVQAAEAMGAKHFHHVSSIAAAGLFKGIFREDMFEEAEKLDHPYLRTKHESEKVVREECKVPFRIYRPGMVIGHSETGEMDKVDGPYYFFKMIQKIRHALPQWVPTIGIEGGRLNIVPVDFVVDALDHIAHLEGEDGNCFHLVDSDPYKVGEILNIFCEAGHAPRMGMRIDSRMFGFIPPFIRQSIKNLPPVKRITGALLDDMGIPPSVMSFINYPTRFDTRELERVLKGTDIEVPRLPSYAPVIWDYWERNLDPDLFKDRTLKGTVEGKVCVVTGATSGIGLATAEKLAEAGAILVIGARTKETLDEVAASLEAKGGNVHAYQCDFSDMDDCDRFVKTVLDNHGHVDVLVNNAGRSIRRSLALSFDRFHDFERTMQLNYFGSVRLIMGFAPAMLERRRGHVVNISSIGVLTNAPRFSAYVSSKSALDAFSRCAAAEWSDRNVTFTTINMPLVKTPMIAPTKIYDSVPTLTPDEAAQMVADAIVYRPKRIATRLGVFAQVLHALAPKMGEIIMNTGYRMFPDSPAAAGSKSGEKPKVSTEQVAFAAIMRGIYW
- Km [4]: 8 mM
- kcat [4]: 0.1 s⁻¹

B4: Alcohol dehydrogenase from Thermoanaerobacter brockii (Thermoanaerobium brockii), SEQ ID NO: 13 (Uniprot P14941) (Thermoanaerobacter brockii) (protein)
chain: MKGFAMLSIGKVGWIEKEKPAPGPFDAIVRPLAVAPCTSDIHTVFEGAIGERHNMILGHEAVGEVVEVGSEVKDFKPGDRVVVPAITPDWRTSEVQRGYHQHSGGMLAGWKFSNVKDGVFGEFFHVNDADMNLAHLPKEIPLEAAVMIPDMMTTGFHGAELADIELGATVAVLGIGPVGLMAVAGAKLRGAGRIIAVGSRPVCVDAAKYYGATDIVNYKDGPIESQIMNLTEGKGVDAAIIAGGNADIMATAVKIVKPGGTIANVNYFGEGEVLPVPRLEWGCGMAHKTIKGGLCPGGRLRMERLIDLVFYKRVDPSKLVTHVFRGFDNIEKAFMLMKDKPKDLIKPVVILA
- Km [6]: 100 mM
- kcat [6]: 0.5 s⁻¹

— patent publication US9850504B2, “Method for the enzymatic production of 3-buten-2-one” (Scientist of Fortune S.A., priority 2013, dated 2017)
